From patent US20220324993A1 (EXCELMAB, published 2022)
Where a chain is given by its changes, count along the chain named. Names and notes keep the numbering of the source.

T1: CD20 on Raji cells (CD20+/CD3-) (human, UniProt P11836 1-297)
T1 sequence (looked up): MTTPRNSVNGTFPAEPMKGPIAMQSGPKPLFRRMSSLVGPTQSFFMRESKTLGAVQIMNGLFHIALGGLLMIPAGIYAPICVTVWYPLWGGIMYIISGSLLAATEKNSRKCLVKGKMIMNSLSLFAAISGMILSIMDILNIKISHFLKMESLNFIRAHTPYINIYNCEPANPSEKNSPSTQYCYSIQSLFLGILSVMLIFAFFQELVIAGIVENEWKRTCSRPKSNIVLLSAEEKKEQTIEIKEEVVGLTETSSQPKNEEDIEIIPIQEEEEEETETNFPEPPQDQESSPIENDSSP

B1: CD20×CD3 BsAb V1 (bispecific antibody, human IgG1, kappa, L234A L235A)
heavy 1: EVQLVESGGGLVQPGRSLRLSCAASGFTFNDYAMHWVRQAPGKGLEWVSTISWNSGSIGYADSVKGRFTISRDNAKKSLYLQMNSLRAEDTALYYCAKDIQYGNYYYGMDVWGQGTTVTVSSASTKGPSVFPCAPSSKSTSGGTAALGCLVKDYFPEPVTVSWNSGALTSGVHTFPAVLQSSGLYSLSSVVTVPSSSLGTQTYICNVNHKPSNTKVDKKVEPKSSDKTHTCPPCPAPEAAGGPSVFLFPPKPKDTLMISRTPEVTCVVVDVSHEDPEVKFNWYVDGVEVHNAKTKPREEQYNSTYRVVSVLTVLHQDWLNGKEYKCKVSNKALPAPIEKTISKAKGQPREPQVYTLPPSREEMTKNQVSLTCLVKGFYPSDIAVEWESNGQPENNYKTDDDVLDSDGSFFLYSKLTVDKSRWQQGNVFSCSVMHEALHNHYTQKSLSLSPGK
light 1: not shown
heavy 2: EVQLVESGGGLVQPGGSLKLSCAASGFTFNTYAMNWVRQAPGKGLEWVARIRSKYNNYATYYADSVKDRFTISRDDSKNTAYLQMNNLKTEDTAMYYCVRHGNFGNSYVSWFAYWGQGTLVTVSSASTKGPSVFPLAPSSKSTSGGTAALGCLVKDYFPEPVTVSWNSGALTSGVHTFPAVLQSSGLYSLSSVVTVPSSSLGTQTYICNVNHKPSNTKVDKKVEPKSCDKTHTCPPCPAPEAAGGPSVFLFPPKPKDTLMISRTPEVTCVVVDVSHEDPEVKFNWYVDGVEVHNAKTKPREEQYNSTYRVVSVLTVLHQDWLNGKEYKCKVSNKALPAPIEKTISKAKGQPREPQVYTLPPSRDELTKNQVSLTCLVKGFYPSDIAVEWESNGQPENNYKTTKKKLDSDGSFFLYSKLTVDKSRWQQGNVFSCSVMHEALHNHYTQKSLSLSPGK
light 2: DIQMTQEPSLTTSPGGTVTLTCRSSTGAVTTSNYANWVQEKPGQAPRGLIGGTNKRAPGTPARFSGSLIGGKAALTITGVQPEDEAIYFCALWYSNLWVFGGGTKLEIKRTVAAPSVFIFPPSDEQLKSGTASVVCLLNNFYPREAKVQWKVDNALQSGNSQESVTEQDSKDSTYSLSSTLTLSKADYEKHKVYACEVTHQGLSSPVTKSFNRGEC
notes: Four-chain IgG-like bispecific antibody with a heterodimeric Fc; The anti-CD20 arm is derived from Ofatumumab; the anti-CD3 arm is a humanized murine antibody without the N106T mutation; Expressed in HEK293 cells behind an IL-2 signal peptide supplied by the plasmid; also called CD20×CD3 bispecific antibody V1
B2: CD20×CD3 BsAb V2 (bispecific antibody, human IgG1, kappa, L234A L235A)
heavy 1: B1 heavy 1
light 1: not shown
heavy 2: B1 heavy 2 with N106T
light 2: B1 light 2
notes: also called CD20×CD3 bispecific antibody V2

Experiments:
[1] = target: T1, CD20 on Raji cells (CD20+/CD3-); test: cell-based or functional assay
[2] = target: T2, CD3 antigen: 1:1 mixture of human CD3 e protein and human CD3 d protein (Sino Biological Inc.) (human, UniProt P07766 23-126; P04234 22-105); test: ELISA, CD3 e/d mixture coated, anti-human IgG-HRP detection
T2 construct: Bought recombinant proteins, mixed 1:1 and coated on the ELISA plate; also called antigen CD3
Method: 4) Addition of Samples: the bispecific antibody sample was diluted with PBS to 10 μg/ml and then subjected to a 4-fold gradient dilution at a total of eight concentrations. The diluted samples were added at 100 μL/well, and two replicate wells were used for each antibody concentration. The reaction wells were sealed with a plate sealing film and incubated at room temperature for 1.5 hours. The plate was washed 5 times with 0.05% PBST.
5) Addition of Secondary Antibody: HRP-labeled Goat Anti-Human IgG (H+L) (purchased from Proteintech company, product catalog No. SA00001-17) was diluted with PBS at a ratio of 1:2000 and added in a volume of 100 μL to each well. The reaction wells were sealed with a plate sealing film and incubated at room temperature for 1 hour. The plate was washed 5 times with 0.05% PBST.
7) Stopping: 50 μL of a stop solution (1 M HCl) was added to each well to stop the chromogenic reaction. After 3 min, the OD value of the reaction solution in each well was read at 450 nm on a microplate reader.

T2 sequence (P07766 23-126 limits assumed, chain 1 of 2): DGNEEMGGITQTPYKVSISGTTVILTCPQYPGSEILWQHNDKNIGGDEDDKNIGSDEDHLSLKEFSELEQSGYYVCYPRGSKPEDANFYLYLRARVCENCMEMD
T2 sequence (P04234 22-105 limits assumed, chain 2 of 2): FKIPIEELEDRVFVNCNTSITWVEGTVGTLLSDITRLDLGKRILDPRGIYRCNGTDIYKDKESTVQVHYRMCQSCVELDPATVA

Row | Binder | ADCC activity to kill target tumor cells (Raji and Daudi cells), EC50 [1] | killing of Raji cells by hPBMCs (LDH release), EC50 [1] | EC50 [2]
1 | B1 | 0.2 ng/mL | 0.21 ng/mL | 818 ng/mL
2 | B2 | 0.2 ng/mL | 0.24 ng/mL | 2100 ng/mL
